Results taken from PMC10501992, “How Pol α-primase is targeted to replisomes to prime eukaryotic DNA replication” (Molecular Cell, 2023).

T1: Pol1 (budding yeast Pol α catalytic subunit) (S. cerevisiae, UniProt P13382 1-1468)
T1 construct: Pol1, S. cerevisiae; modelled: CTD 1271-1468 and CIP box F140-S149; stood in the assay as a subunit of m1; also called Pol1CTD; Pol1CIP; source: subunit of Pol α-primase from S. cerevisiae strain yAE95, purified as described previously
T1 sequence: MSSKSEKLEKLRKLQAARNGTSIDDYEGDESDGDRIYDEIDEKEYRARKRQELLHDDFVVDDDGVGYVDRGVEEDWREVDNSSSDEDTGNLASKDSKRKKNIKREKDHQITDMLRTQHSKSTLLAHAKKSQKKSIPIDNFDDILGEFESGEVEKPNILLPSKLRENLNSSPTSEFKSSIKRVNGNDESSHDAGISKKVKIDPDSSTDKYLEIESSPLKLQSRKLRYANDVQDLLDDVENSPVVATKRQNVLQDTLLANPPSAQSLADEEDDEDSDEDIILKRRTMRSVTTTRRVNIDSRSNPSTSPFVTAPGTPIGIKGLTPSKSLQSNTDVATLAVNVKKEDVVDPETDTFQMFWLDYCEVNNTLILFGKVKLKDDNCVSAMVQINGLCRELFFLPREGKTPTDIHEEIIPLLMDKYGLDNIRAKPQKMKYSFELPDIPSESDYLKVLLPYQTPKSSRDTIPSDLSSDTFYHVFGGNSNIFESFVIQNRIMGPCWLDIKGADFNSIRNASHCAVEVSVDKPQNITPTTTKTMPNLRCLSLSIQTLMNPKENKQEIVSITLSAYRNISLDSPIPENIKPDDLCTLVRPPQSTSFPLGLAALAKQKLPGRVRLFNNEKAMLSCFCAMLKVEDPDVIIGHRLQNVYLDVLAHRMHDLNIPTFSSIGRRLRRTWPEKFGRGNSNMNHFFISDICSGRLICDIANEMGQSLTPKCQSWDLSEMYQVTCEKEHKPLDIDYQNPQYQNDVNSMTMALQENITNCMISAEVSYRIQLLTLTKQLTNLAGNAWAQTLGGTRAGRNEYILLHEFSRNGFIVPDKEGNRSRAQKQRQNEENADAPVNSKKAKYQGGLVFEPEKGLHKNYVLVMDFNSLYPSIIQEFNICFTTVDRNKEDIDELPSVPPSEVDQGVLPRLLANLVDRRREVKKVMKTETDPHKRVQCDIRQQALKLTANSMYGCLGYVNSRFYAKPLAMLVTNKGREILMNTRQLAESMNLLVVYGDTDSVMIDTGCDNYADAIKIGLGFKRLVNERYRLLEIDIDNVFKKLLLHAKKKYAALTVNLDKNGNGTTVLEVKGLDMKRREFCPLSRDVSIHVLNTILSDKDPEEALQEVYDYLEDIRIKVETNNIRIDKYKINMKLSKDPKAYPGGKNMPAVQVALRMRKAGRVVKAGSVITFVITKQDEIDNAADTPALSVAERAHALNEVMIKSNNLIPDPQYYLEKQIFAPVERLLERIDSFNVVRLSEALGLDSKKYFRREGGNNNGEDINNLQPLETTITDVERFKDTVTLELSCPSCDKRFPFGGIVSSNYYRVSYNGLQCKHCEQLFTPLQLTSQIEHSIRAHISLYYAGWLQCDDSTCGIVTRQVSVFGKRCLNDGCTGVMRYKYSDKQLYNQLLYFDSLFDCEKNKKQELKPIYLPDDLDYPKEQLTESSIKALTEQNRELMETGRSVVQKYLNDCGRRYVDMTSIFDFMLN

T2: Pri2 (budding yeast primase accessory subunit) (S. cerevisiae, UniProt P20457 1-528)
T2 construct: Pri2, S. cerevisiae; modelled residues 1-5 (N terminus), 44-177 and 181-299 (NTD); stood in the assay as a subunit of m1; also called Pri2NTD; Pri2_(Nterm); source: subunit of Pol α-primase from S. cerevisiae strain yAE95, purified as described previously
T2 sequence: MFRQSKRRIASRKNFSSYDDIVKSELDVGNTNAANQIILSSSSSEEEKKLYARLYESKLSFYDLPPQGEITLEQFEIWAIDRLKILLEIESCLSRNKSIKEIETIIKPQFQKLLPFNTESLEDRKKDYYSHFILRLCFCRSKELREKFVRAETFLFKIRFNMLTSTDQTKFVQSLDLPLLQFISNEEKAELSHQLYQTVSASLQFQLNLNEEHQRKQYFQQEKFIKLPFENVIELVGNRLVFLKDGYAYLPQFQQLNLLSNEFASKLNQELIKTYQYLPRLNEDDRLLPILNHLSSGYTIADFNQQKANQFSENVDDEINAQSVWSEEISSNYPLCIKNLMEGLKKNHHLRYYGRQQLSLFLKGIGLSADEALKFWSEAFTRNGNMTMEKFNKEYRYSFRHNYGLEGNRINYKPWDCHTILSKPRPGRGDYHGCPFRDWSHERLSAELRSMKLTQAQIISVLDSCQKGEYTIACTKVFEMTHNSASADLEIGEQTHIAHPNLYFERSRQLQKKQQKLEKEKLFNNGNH


Key:
Experiment in all cases: cryo-EM structure; budding yeast replisome: 150 nM CMG on fork DNA (39 nt 3′ flap, 60 nt 5′ flap) with 1.5-fold molar excess of Tof1-Csm3, Mrc1 and Pol α-primase; 25 mM HEPES-NaOH pH 7.6, 150 mM NaOAc, 0.5 mM TCEP, 500 μM AMP-PNP, 10 mM Mg(OAc)2, on ice; 10-30% glycerol gradient with glutaraldehyde and BS3 cross-linkers
Mcm3 (budding yeast) = biological target: T3, Mcm3 (budding yeast) (S. cerevisiae, UniProt P24279 1-971); details: both partners purified
T3 construct: Mcm3, S. cerevisiae; stood in the assay as a subunit of m2; source: subunit of CMG from S. cerevisiae strain yJY197, purified as described previously

[1] = biological target: T1, Pol1 (budding yeast Pol α catalytic …); details: both partners purified
[2] = biological target: T2, Pri2 (budding yeast primase accessory …); details: both partners purified
[3] = biological target: T4, budding yeast CMG (Cdc45-Mcm2-7-GINS) replicative helicase (S. cerevisiae, UniProt Q08032 1-650; P29469 1-868; P24279 1-971; P30665 1-933; P29496 1-775; P53091 …); details: both partners purified
T4 construct: Cdc45, S. cerevisiae; Mcm2, S. cerevisiae; Mcm3, S. cerevisiae; Mcm4, S. cerevisiae (named only within Mcm2-7); Mcm5, S. cerevisiae; Mcm6, S. cerevisiae (named only within Mcm2-7); Mcm7, S. cerevisiae (named only within Mcm2-7); Psf1, subunit of GINS, S. cerevisiae; Psf2, subunit of GINS, S. cerevisiae; Sld5, subunit of GINS, S. cerevisiae; source: S. cerevisiae strain yJY197, expressed and …

[4] = biological target: the molecule itself

T3 sequence (P24279 whole entry): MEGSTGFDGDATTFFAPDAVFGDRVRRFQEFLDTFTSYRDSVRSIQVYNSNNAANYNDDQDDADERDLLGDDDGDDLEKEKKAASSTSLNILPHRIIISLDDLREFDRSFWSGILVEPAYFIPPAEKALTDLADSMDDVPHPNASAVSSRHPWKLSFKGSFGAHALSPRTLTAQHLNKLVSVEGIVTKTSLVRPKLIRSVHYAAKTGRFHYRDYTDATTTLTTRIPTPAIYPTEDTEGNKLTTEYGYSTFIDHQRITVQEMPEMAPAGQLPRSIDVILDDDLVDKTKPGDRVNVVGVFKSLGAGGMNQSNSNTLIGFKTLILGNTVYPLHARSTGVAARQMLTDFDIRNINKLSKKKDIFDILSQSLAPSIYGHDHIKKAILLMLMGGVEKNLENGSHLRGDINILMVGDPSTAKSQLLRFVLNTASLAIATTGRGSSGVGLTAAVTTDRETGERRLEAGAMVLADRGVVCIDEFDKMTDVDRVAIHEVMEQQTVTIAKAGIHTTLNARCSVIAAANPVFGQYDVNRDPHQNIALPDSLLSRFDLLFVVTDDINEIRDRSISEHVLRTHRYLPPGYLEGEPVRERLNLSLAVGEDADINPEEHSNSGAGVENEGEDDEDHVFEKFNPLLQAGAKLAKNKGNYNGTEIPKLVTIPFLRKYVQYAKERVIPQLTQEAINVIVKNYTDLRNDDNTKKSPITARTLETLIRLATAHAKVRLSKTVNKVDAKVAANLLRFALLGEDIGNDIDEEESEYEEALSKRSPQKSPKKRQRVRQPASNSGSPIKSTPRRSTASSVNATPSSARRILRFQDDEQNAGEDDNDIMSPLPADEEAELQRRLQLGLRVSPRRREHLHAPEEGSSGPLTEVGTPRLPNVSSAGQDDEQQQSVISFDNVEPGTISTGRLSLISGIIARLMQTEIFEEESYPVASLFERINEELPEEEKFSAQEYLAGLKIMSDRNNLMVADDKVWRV

binding result (Mcm3 (budding yeast))	binding result [1]	binding result [2]	binding result [3]	Binder	stoichiometry N [4]
binds	binds	–	–	Pol12 (budding yeast Pol α accessory subunit) (natural protein, S. cerevisiae, Pol12, S. cerevisiae; modelled residues 1-79, 203-582 and 604-705; stood in the assay as a subunit of m1; also called Pol12NTD; source: subunit of Pol α-primase from S. cerevisiae strain yAE95, purified as described previously) MSGSIDVITHFGPDADKPEIITALENLTKLHALSVEDLYIKWEQFSNQRRQTHTDLTSKNIDEFKQFLQLQMEKRANQISSSSKVNTSTKKPVIKKSLNSSPLFGLSIPKTPTLKKRKLHGPFSLSDSKQTYNVGSEAETNEKGNSSLKLEFTPGMAEDAVGDSAPLSHAKSSDAKTPGSSTFQTPTTNTPTTSRQNVPAGEILDSLNPENIEISSGNPNVGLLSTEEPSYNQVKVEPFYDAKKYKFRTMRQNLQEASDVLDDQIESFTKIIQNHYKLSPNDFADPTIQSQSEIYAVGRIVPDSPTYDKFLNPESLSLETSRMGGVGRRVRLDLSQVNELSFFLGQIVAFKGKNANGDYFTVNSILPLPYPNSPVSTSQELQEFQANLEGSSLKVIVTCGPYFANDNFSLELLQEFIDSINNEVKPHVLIMFGPFIDITHPLIASGKLPNFPQFKTQPKTLDELFLKLFTPILKTISPHIQTVLIPSTKDAISNHAAYPQASLIRKALQLPKRNFKCMANPSSFQINEIYFGCSNVDTFKDLKEVIKGGTTSSRYRLDRVSEHILQQRRYYPIFPGSIRTRIKPKDVSTKKETNDMESKEEKVYEHISGADLDVSYLGLTEFVGGFSPDIMIIPSELQHFARVVQNVVVINPGRFIRATGNRGSYAQITVQCPDLEDGKLTLVEGEEPVYLHNVWKRARVDLIAS	–
–	–	binds	–	Pri1 (budding yeast primase catalytic subunit) (natural protein, S. cerevisiae, Pri1, S. cerevisiae; modelled aside from its flexible N and C termini; stood in the assay as a subunit of m1; source: subunit of Pol α-primase from S. cerevisiae strain yAE95, purified as described previously) MTNSVKTNGPSSSDMEYYYKSLYPFKHIFNWLNHSPKPSRDMINREFAMAFRSGAYKRYNSFNSVQDFKAQIEKANPDRFEIGAIYNKPPRERDTLLKSELKALEKELVFDIDMDDYDAFRTCCSGAQVCSKCWKFISLAMKITNTALREDFGYKDFIWVFSGRRGAHCWVSDKRARALTDVQRRNVLDYVNVIRDRNTDKRLALKRPYHPHLARSLEQLKPFFVSIMLEEQNPWEDDQHAIQTLLPALYDKQLIDSLKKYWLDNPRRSSKEKWNDIDQIATSLFKGPKQDSHIIKLRECKEDLVLMTLYPKLDVEVTKQTIHLLKAPFCIHPATGNVCVPIDESFAPEKAPKLIDLQTEMEKNNDVSLTALQPFINQFQAYVSSLLKNELGSVKREREDDDEPASLDF	–
–	binds	–	binds	Ctf4 (budding yeast) (natural protein, UniProt Q01454 1-927, looked up, Ctf4, S. cerevisiae; the results say that Ctf4 was not added to the yeast reconstitution; the general method lists Ctf4/AND-1 among the proteins added; source: endogenous Ctf4 likely co-purifying with CMG from S. cerevisiae) MVSVIDKLVFDFGGKTLVSLAPDNNTLCVANKNGLTKILKTNNPEEEPETLDSSKLVSSIKCYSNSHFLMTTMQGDALRYNIDSSQEELLARFALPLRDCCVIHSGKMAVFGGDDLELILLELDDETHKKHAIKIDEQVSQISYNSQMNILAVSMINGKVQIFSLTSTIPNKVHELNDYIVANSYDDTHRDKILSNMMDDIDKDNDNDLSETADPDENNVADPEFCAANRICTRVAWHPKGLHFALPCADDTVKIFSIKGYSLQKTLSTNLSSTKAHFIDLQFDPLRGTYIAAVDLNNKLTVWNWETSEIHYTREFKRKITNIAWKIQADSKTLDLVLGTWSGSIAIVQNLAESVVSNIPDQSVAESSTKHGLFVDSESDLENLEGNDDINKSDKLFSDITQEANAEDVFTQTHDGPSGLSEKRKYNFEDEEDFIDDDDGAGYISGKKPHNEHSYSRVHKTHSFPISLANTGKFRYMPFSPAGTPFGFTDRRYLTMNEVGYVSTVKNSEQYSITVSFFDVGRFREYHFEDLFGYDLCFLNEKGTLFGQSKTGQIQYRPHDSIHSNWTKIIPLQAGERITSVAATPVRVIVGTSLGYFRSFNQFGVPFAVEKTSPIVALTAQNYRVFSVHYSQFHGLSYSLSELGTSSKRYYKRECPLPMSLPNINSDMKKDANLDYYNFNPMGIKSLFFSSYGDPCIFGSDNTLLLLSKWRSPEESKWLPILDSNMEIWKMSGGKETTDIHVWPLALAYDTLNCILVKGKHIWPEFPLPLPSEMEIRMPVFVKSKLLEENKAILNKKNEIGADTEAEEGEEDKEIQIPVSMAAEEEYLRSKVLSELLTDTLENDGEMYGNENEVLAALNGAYDKALLRLFASACSDQNVEKALSLAHELKQDRALTAAVKISERAELPSLVKKINNIREARYEQQLK	3
–	–	binds	–	Psf2 (budding yeast GINS subunit) (natural protein, S. cerevisiae, Psf2, subunit of GINS, S. cerevisiae; stood in the assay as a subunit of m2; source: subunit of CMG from S. cerevisiae strain yJY197, purified as described previously) MSLPAHLQQTFSPEEIQFIVENEPIKIFPRITTRQKIRGDDRGTGNHTRWQLITTDDKALNNMVAMRSTEVVLWIALLLKQQSKCSIVAPQWLTTKELDRKIQYEKTHPDRFSELPWNWLVLARILFNKAKDDFHDPIHELRGKIQDLREIRQIKVLKGLKYLNESHLQLDNLSLLEINELRPFITEIMDKLREIHTASLTAGTENDEEEFNI	–
